In doi:10.1101/2021.01.30.428887:
Like-named read-outs stand apart in the source and are kept apart here.

Experiments:
Experiment in all cases: quadruple optical trap force measurement
[1] = target: Human vimentin C328N with three additional amino acids, GGC, at the C-terminus (human)
[2] = target: Human vimentin C328N with three additional amino acids, GGC, at the C-terminus (human); remark: listed apart in the source
[3] = target: Human vimentin C328N with three additional amino acids, GGC, at the C-terminus (human); remark: listed apart in the source
[4] = target: Human vimentin C328N with three additional amino acids, GGC, at the C-terminus (human); remark: listed apart in the source
[5] = target: Human vimentin C328N with three additional amino acids, GGC, at the C-terminus (human); remark: listed apart in the source
[6] = target: Human vimentin C328N with three additional amino acids, GGC, at the C-terminus (human); remark: listed apart in the source
[7] = target: Human vimentin C328N with three additional amino acids, GGC, at the C-terminus (human); remark: listed apart in the source

## Human vimentin C328N with three additional amino acids, GGC, at the C-terminus (natural protein)
[1]
  koff: 0.08 s⁻¹
[2]
  koff: 0.1 s⁻¹
[3]
  maximal interaction (rupture) force: 57 pN
[4]
  koff: 0.2 s⁻¹
[5]
  maximal interaction (rupture) force: 85 pN
[6]
  koff: 0.15 s⁻¹
[7]
  koff: 0.18 s⁻¹
  maximal interaction (rupture) force: 112 pN
